Changes are numbered by the printed parent chain. Names and notes keep the numbering of the source.
Assays:
[1] = biological target: T1, CD40-human Fc (huFc) fusion protein (Creative BioMart) (human, UniProt P25942 21-193); experiment: competition ELISA: antibody titrated into 1 µg/mL CD40-huFc, mixture added to plate coated with HA-tagged CD40L, bound CD40-huFc detected with HRP anti-human Fc; blocked ligand: CD40L
T1 construct: bought; also called CD40-huFc; not shown: human Fc
From the text: (§1) After development with TMB (3, 3′, 5, 5′-tetramethylbenzidine) substrate, the plates were read at OD₄₅₀.

human CD40 on cells [2] = biological target: T2, human CD40 on cells (human, UniProt P25942 21-277); experiment: cell-based or functional assay
T2 sequence (P25942 21-277 limits assumed): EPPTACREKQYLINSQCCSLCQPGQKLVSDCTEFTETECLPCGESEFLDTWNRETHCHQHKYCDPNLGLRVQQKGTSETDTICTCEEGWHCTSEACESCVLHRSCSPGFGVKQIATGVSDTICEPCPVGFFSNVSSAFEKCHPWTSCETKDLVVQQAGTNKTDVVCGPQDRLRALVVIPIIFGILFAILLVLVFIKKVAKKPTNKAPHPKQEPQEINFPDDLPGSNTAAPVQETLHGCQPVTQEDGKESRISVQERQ

[3] = biological target: T3, Alexa Fluor 488-conjugated soluble human CD40 protein (human, UniProt P25942 21-193, limits assumed, Alexa Fluor 488 conjugate (sites not given)); experiment: flow cytometry: antibody titrated into 1 µg/mL Alexa Fluor 488-conjugated soluble human CD40 on CD40L+ Jurkat cells; half-maximal enhancement of the binding of CD40 to cell-surface CD40L
T3 construct: also called fluorochrome-conjugated human CD40
T3 sequence (P25942 21-193 limits assumed): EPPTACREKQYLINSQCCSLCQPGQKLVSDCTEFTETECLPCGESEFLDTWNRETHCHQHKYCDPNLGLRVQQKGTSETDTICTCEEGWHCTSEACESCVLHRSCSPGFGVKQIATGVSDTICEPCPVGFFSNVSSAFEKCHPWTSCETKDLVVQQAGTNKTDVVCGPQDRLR

human CD40 on cells [4] = biological target: T2, human CD40 on cells; experiment: cell-based or functional assay; remark: listed apart in the source
[5] = biological target: T1, CD40-human Fc (huFc) fusion protein …; experiment: ELISA: antibody titrated into 1 µg/mL CD40-huFc, mixture added to plate coated with HA-tagged CD40L, bound complex detected with HRP anti-human Fc; half-maximal enhancement of the signal of CD40-huFc on CD40L
From the text: as §1

[6] = biological target: T4, soluble cynomolgus (cyno) CD40 (Creative BioMart, cat #CD40-8824C) (cynomolgus, UniProt G7PG38 21-193); experiment: SPR (BIAcore T200); antibody captured by anti-Fc; soluble CD40 injected
T4 construct: extracellular domain; also called Cynomolgus CD40
Method: (§2) CD40 binding kinetics was analyzed by BIAcore assay with a BIAcore T200 instrument. Briefly, a goat anti-mouse Fc antibody (Pierce, cat #31170) or goat anti-human Fc (Pierce, cat #31125) was immobilized on a CM5 sensor chip, followed by capture of the anti-CD40 antibodies on the test surface.

[7] = biological target: soluble form of the extracellular domain of human CD40 (Creative BioMart, cat #CD402221H) (human, UniProt P25942 21-193); experiment: as above
soluble form of the extracellular domain of human CD40 (Creative BioMart, cat #CD402221H), sequence (P25942 21-193 limits assumed): as above
Method: as §2

human CD40 on cells [8] = biological target: T2, human CD40 on cells; experiment: cell-based or functional assay; remark: listed apart in the source
[9] = biological target: T1, CD40-human Fc (huFc) fusion protein …; experiment: ELISA: CD40-huFc mixed with antibody, binding to plate-bound HA-tagged CD40L
From the text: as §1

[10] = biological target: T1, CD40-human Fc (huFc) fusion protein …; experiment: ELISA: 1 µg/mL CD40-huFc with control huIgG1 on plate coated or not coated with HA-tagged CD40L, detection with HRP anti-human Fc
From the text: as §1

[11] = biological target: T5, human FcγRI (CD64) on CHO cells (human, UniProt P12314 16-374); experiment: flow cytometry on CHO cells stably expressing human FcγRI (CD64), detection with fluorescence-conjugated anti-human F(ab')2 secondary antibody
T5 construct: whole, on cells
T5 sequence (P12314 16-374): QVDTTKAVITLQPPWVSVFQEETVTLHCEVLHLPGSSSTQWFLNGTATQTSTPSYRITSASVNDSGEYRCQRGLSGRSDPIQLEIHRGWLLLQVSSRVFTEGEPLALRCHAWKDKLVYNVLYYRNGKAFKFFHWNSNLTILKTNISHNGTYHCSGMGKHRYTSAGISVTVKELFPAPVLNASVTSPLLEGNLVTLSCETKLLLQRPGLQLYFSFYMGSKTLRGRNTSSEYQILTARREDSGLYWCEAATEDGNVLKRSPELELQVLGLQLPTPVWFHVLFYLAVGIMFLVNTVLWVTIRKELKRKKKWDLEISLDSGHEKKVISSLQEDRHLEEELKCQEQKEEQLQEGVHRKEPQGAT
Method: (§3) Increasing amounts of anti-CD40 human IgG₁ antibodies and their Fc variants were incubated with CHO cells stably expressing different human Fcγ receptors, including FcγRI (CD64), FcγRIIA (CD32a), FcγRIIB (CD32b), and FcγRIIIA (CD16) with either F or V polymorphism. The binding was detected with a fluorescence-conjugated anti-human F(ab′)2 specific secondary antibody (Jackson ImmunoResearch).

[12] = biological target: T6, human FcγRIIB (CD32b) on CHO cells (human, UniProt P31994 43-310); experiment: flow cytometry on CHO cells stably expressing human FcγRIIB (CD32b), detection with fluorescence-conjugated anti-human F(ab')2 secondary antibody
T6 construct: whole, on cells
T6 sequence (looked up): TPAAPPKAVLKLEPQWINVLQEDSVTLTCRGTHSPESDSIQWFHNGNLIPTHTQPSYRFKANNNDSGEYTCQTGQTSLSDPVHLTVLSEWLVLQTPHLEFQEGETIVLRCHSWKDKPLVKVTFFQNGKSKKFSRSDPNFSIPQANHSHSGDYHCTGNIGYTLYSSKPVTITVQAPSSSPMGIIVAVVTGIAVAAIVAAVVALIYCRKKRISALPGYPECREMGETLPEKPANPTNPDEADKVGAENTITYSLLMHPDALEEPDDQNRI
Method: as §3

[13] = biological target: T7, human FcγRIIA (CD32a) on CHO cells (human, UniProt P12318 34-317); experiment: flow cytometry on CHO cells stably expressing human FcγRIIA (CD32a), detection with fluorescence-conjugated anti-human F(ab')2 secondary antibody
T7 construct: whole, on cells
T7 sequence (looked up): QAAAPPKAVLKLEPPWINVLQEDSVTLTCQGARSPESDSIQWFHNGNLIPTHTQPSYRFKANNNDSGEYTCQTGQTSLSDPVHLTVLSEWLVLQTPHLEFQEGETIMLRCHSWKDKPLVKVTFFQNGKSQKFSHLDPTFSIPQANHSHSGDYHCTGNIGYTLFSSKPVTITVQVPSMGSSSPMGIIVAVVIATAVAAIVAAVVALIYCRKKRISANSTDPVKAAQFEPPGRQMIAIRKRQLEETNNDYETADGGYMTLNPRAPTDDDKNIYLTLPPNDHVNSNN
Method: as §3

[14] = biological target: T8, human FcγRIIIA (CD16) with V polymorphism on CHO cells (human, UniProt P08637 17-254); experiment: flow cytometry on CHO cells stably expressing human FcγRIIIA (CD16V), detection with fluorescence-conjugated anti-human F(ab')2 secondary antibody
T8 construct: whole, on cells; V allotype; also called CD16V
T8 sequence (P08637 17-254 F176V): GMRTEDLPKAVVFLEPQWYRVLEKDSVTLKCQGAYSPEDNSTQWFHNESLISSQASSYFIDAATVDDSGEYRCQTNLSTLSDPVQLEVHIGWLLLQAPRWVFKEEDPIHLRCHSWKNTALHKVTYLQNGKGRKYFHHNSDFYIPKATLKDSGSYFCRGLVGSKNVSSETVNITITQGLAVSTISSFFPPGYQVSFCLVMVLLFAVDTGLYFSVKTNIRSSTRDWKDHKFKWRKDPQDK
Method: as §3

T1 sequence (P25942 21-193 limits assumed): as the sequence (P25942 21-193 limits assumed) above

B1: Humanized muAb8 #1 (antibody, V domains shown)
VH: EVQLVQSGAEVKKPGSSVKVSCKASGYTFTDYYINWVRQAPGQGLEWIGWIFPGSGSVYCNEQFKGRATLTVDRSTSTAYMELSSLRSEDTAVYFCASSLGKFAYWGQGTLVTVSS
VL: DIQMTQSPSSLSASVGDRVTITCKASQSVVTAVAWYQQKPGKSPKLLIYSASNRYTGVPSRFSGSGSGTDFTLTISSLQPEDFATYFCQQYSSYPYTFGGGTKVEIK
notes: human IgG1 constant region (natural variants D356E and L358M) and kappa light chain; also called huAb8-1
IC50 (read off the curve) [1]: ~0.3 µg/mL
Maximal activation (OD655) in HEK293 blue CD40 NFκB reporter cells (human CD40 on cells [2]): 0.45 OD655
NFκB activation EC50 (SEAP, OD655) in HEK293 blue CD40 NFκB reporter cells (human CD40 on cells [2]): 0.14 µg/mL

B2: Humanized muAb8 #3 (antibody, V domains shown)
VH: B1 VH with A68V, L70I, R74K, F95Y
VL: B1 VL
notes: human IgG1 constant region (natural variants D356E and L358M) and kappa light chain; also called huAb8-3
IC50 (read off the curve) [1]: ~0.3 µg/mL
Maximal activation (OD655) in HEK293 blue CD40 NFκB reporter cells (human CD40 on cells [2]): 0.46 OD655
NFκB activation EC50 (SEAP, OD655) in HEK293 blue CD40 NFκB reporter cells (human CD40 on cells [2]): 0.07 µg/mL

B3: Humanized muAb9 A2I (antibody, human IgG1, kappa)
heavy: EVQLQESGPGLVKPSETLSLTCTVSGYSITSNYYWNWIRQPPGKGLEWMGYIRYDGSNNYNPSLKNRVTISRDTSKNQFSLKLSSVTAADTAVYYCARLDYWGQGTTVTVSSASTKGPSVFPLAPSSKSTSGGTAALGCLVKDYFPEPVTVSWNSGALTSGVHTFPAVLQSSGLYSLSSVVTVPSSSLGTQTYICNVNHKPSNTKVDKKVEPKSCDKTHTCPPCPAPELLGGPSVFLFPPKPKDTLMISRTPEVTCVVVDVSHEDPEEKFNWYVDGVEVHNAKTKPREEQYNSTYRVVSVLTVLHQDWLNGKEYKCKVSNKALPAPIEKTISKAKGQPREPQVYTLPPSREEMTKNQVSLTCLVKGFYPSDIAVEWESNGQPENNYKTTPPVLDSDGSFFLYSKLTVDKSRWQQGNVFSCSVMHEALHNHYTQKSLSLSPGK
light: DIVMTQTPLSLSVTPGQPASISCRSSQSLENTNGNTFLNWYLQKPGQSPQLLIYRVSNRFSGVPDRFSGSGSGTDFTLKISRVEAEDVGVYYCLQVTHVPFTFGQGTKLEIKRTVAAPSVFIFPPSDEQLKSGTASVVCLLNNFYPREAKVQWKVDNALQSGNSQESVTEQDSKDSTYSLSSTLTLSKADYEKHKVYACEVTHQGLSSPVTKSFNRGEC
notes: human IgG1 V273E/kappa; also called huAb9 A2I; huAb9 A2I (huIgG1 V273E)
EC50 (read off the curve) [3]: ~4 µg/mL
NFκB activity EC50; HEK293 blue CD40 reporter cells co-cultured with CHO cells expressing CD16F (human CD40 on cells [4]): 0.39 nM
NFκB activity EC50; HEK293 blue CD40 reporter cells co-cultured with CHO cells expressing CD16V (human CD40 on cells [4]): 0.3 nM
NFκB activity EC50; HEK293 blue CD40 reporter cells co-cultured with CHO cells expressing CD32a (human CD40 on cells [4]): 0.08 nM
NFκB activity EC50; HEK293 blue CD40 reporter cells co-cultured with CHO cells expressing CD32b (human CD40 on cells [4]): 0.07 nM
NFκB activity EC50; HEK293 blue CD40 reporter cells co-cultured with CHO cells expressing CD64 (human CD40 on cells [4]): 0.01 nM
NFκB activity EC50; HEK293 blue CD40 reporter cells co-cultured with FcγR negative CHO cells (human CD40 on cells [4]): 0.72 nM
EC50 (read off the curve) [5]: ~1 µg/mL
Kd [6]: 150 nM
koff [6]: 0.25 s⁻¹
Kd [7]: 170 nM
koff [7]: 0.22 s⁻¹
kon [7]: 1.3e+06 M⁻¹ s⁻¹

B4: Humanized muAb9 A2V (antibody, human IgG1, kappa)
heavy: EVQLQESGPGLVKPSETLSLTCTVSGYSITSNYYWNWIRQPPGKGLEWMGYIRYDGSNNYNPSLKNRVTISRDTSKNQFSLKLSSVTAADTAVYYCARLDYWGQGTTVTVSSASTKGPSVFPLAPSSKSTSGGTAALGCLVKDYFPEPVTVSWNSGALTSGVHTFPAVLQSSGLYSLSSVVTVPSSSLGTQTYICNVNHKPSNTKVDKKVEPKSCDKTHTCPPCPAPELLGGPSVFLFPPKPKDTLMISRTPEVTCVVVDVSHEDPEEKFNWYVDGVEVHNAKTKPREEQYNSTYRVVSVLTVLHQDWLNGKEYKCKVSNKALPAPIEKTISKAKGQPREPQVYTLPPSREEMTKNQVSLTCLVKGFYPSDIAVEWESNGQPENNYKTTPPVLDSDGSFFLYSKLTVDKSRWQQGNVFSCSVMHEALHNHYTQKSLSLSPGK
light: B3 light with I2V
notes: human IgG1 V273E/kappa; also called huAb9 A2V
Kd [6]: 140 nM
koff [6]: 0.27 s⁻¹
kon [6]: 1.9e+06 M⁻¹ s⁻¹
Kd [7]: 170 nM
koff [7]: 0.26 s⁻¹
kon [7]: 1.5e+06 M⁻¹ s⁻¹

B5: AD163.27.12 (antibody, V domains shown)
VH: QVQLQQPGAELVRPGSSVKLSCKASGYTFTSYWMHWVKQRPIQGLEWIGNIDPSNGETHYNQKFKDKATLTVDKSSSTAYMQLSSLTSEDSAVYYCARERIYYSGSTYDGYFDVWGTGTTVTVSS
VL: QIVLTQSPAIMSASPGEKVTMTCSASSSLSYMHWYQQKSGTSPKRWIYDTSKLASGVPARFSGSGSGTSYSLTISSMEGEDGATYYCQQWSSNPWTFGGGTKLEIK
notes: mouse hybridoma monoclonal; same VH as muAb6; also called muAb7
moDC activation (IL-12p70, pg/mL) (human CD40 on cells [8]): 1510 pg/mL
OD450 Ratio [9]: 0.41 ratio to isotype control
OD450 with anti-CD40 antibody [9]: 0.328 OD450

B6: AD164.76.3 (antibody, V domains shown)
VH: DVQLQESGPGLVKPSQSLSLTCSVTGYSITSNYYWNWIRQFPGNKLEWMGYIRYDGSNNYNPSLKNRISITRDTSKNQFFLRLNSVTTEDTATYYCTRLDYWGQGTTLTVSS
VL: DAVMTQTPLSLPVSLGDQASISCRSSQSLENSNGNTFLNWFLQKPGQSPQLLIYRISNRFSGVPDRFSGSGSGTDFTLKISRVEAEDLGVYFCLQVTHVPFTFGSGTKLEIK
notes: mouse hybridoma monoclonal; also called muAb10
moDC activation (IL-12p70, pg/mL) (human CD40 on cells [8]): 770 pg/mL
OD450 Ratio [9]: 2.63 ratio to isotype control
OD450 with anti-CD40 antibody [9]: 2.11 OD450

B7: AD164.14.6 (antibody, V domains shown)
VH: B6 VH with R82K, T97A
VL: B6 VL with S32T, I56V
notes: mouse hybridoma monoclonal; also called muAb9
moDC activation (IL-12p70, pg/mL) (human CD40 on cells [8]): 878 pg/mL
OD450 Ratio [9]: 2.35 ratio to isotype control
OD450 with anti-CD40 antibody [9]: 1.88 OD450

B8: AD165.1.2 (antibody, V domains shown)
VH: DVQLQESGPGLVEPSQSLFLTCSVTGYSITTNYNWNWIRQFPGNKLEWMGYIRHDGTNNYNPSLKNRISIIRDTPKNQFFLKLNSVTTEDTAIYFCTRLDYWGQGTSVTVSS
VL: B6 VL with N33Y, K44R, I56V, S61C, V90I, F101Y, S105G
notes: mouse hybridoma monoclonal; also called muAb5
moDC activation (IL-12p70, pg/mL) (human CD40 on cells [8]): 720 pg/mL
OD450 Ratio [9]: 1.24 ratio to isotype control
OD450 with anti-CD40 antibody [9]: 0.989 OD450

B9: AD166.4.4 (antibody, V domains shown)
VH: QVQLQQSGAELMKPGASAKLSCKATGYTFTGYWIQWVKQRPGHGLEWIGEILPGGDHTKYNEKFRGKATFTSDTSSNTVYMQLSSLTTEDSAIYYCARVGGDYWGQGTTLTVSS
VL: DVVMTQTPLSLPVSLGDQASISCRSSQSLVNSNENTYLHWYLQKPGQSPKLLIYKVFNRYSGVPDRFSGSGSGTDFTLKISRVEAEDLGVYFCFQSTHVPWTFGGGTKLEIK
notes: mouse hybridoma monoclonal; also called muAb2
moDC activation (IL-12p70, pg/mL) (human CD40 on cells [8]): 0 pg/mL
OD450 Ratio [9]: 1.28 ratio to isotype control
OD450 with anti-CD40 antibody [9]: 1.02 OD450

B10: AD175.14.11 (antibody, V domains shown)
VH: EVQLQQSGPELVKPGASVKISCKASGYTFTDYYMNWVKQSHGKSLEWIGDINPNNGGTSYNQKFKGKATLTVDKSSSTAYMELRSLTSEDSAVYYCARRGGLGRGTYALDYWGQGTSVTVSS
VL: DIQMTQTTSSLSASLGDRVTISCRASQDISNYLNWYQQKPDGTVKPLIYYTSRLHLGVPSRFSGSGSGTDYSLTISNLEQEDIATYFCQQGNTLPLTFGAGTKLELK
notes: mouse hybridoma monoclonal; also called muAb3
moDC activation (IL-12p70, pg/mL) (human CD40 on cells [8]): 0 pg/mL
OD450 Ratio [9]: 0.09 ratio to isotype control
OD450 with anti-CD40 antibody [9]: 0.068 OD450

B11: HA-tagged CD40L (R&D Systems) (ligand)
chain: ENSFEMQKGDQNPQIAAHVISEASSKTTSVLQWAEKGYYTMSNNLVTLENGKQLTVKRQGLYYIYAQVTFCSNREASSQAPFIASLCLKSPGRFERILLRAANTHSSAKPCGQQSIHLGGVFELQPGASVFVNVTDPSQVSHGTGFTSFGLLKL
notes: bought; not shown: HA tag
binding result [10]: binds

B12: huAb9-5 human IgG1 V273E variant (antibody)
heavy: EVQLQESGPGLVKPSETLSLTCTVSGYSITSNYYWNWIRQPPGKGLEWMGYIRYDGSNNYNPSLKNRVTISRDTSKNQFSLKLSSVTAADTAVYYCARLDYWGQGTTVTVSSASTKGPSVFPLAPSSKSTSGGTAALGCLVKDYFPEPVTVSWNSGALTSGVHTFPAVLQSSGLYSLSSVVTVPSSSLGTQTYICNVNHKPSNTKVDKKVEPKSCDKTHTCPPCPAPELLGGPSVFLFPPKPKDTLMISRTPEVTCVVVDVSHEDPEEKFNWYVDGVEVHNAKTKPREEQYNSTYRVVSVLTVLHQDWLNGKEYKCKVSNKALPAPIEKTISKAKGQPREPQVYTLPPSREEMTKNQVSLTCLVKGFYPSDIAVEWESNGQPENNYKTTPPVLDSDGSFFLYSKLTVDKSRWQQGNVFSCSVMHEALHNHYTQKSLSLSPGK
light: B3 light with I2A
notes: also called huAb9-5 V273E
EC50 (read off the curve) [11]: ~0.5 µg/mL
binding result [12]: binds
binding result [13]: binds
binding result [14]: binds

B13: huAb9-5 human IgG1 V273Y variant (antibody)
heavy: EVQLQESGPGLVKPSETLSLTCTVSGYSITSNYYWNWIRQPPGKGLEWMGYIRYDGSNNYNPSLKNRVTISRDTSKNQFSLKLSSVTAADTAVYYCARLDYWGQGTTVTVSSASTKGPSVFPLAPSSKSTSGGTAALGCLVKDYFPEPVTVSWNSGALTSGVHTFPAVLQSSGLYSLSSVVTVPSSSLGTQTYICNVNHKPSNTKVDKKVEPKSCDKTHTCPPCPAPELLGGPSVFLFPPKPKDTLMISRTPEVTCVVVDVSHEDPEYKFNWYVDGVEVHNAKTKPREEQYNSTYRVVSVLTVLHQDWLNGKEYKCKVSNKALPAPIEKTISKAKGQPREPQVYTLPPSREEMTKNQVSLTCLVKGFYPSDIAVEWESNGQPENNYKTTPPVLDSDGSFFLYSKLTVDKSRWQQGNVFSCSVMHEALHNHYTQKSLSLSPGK
light: B3 light with I2A
notes: also called huAb9-5 V273Y
EC50 (read off the curve) [11]: ~0.4 µg/mL
binding result [12]: binds
binding result [13]: binds

From US20210277137A1 (AbbVie / Abbott, published 2021)
